From patent US20230406915A1 (HJB HANGZHOU, published 2023)

Key:
[1] = target: the molecule itself; experiment: BLI (forteBIO Octet RED96), antibody captured on ProA biosensor, self-association in acetate buffer pH 5.5; acetate at pH 5.5; self-association
Method: (§1) Self-association binding constant: At high concentrations, undesirable solution properties such as self-association can pose significant challenges to preparation development. In addition to potential manufacturing and delivery challenges, self-associating substances can also affect biological activity and pharmacokinetic properties.
(§2) The self-association binding constants were measured using the forteBIO Octet technique (Octet RED96). The antibodies were diluted to 150 ug/mL with an acetate buffer (pH 5.5), and then added to sample plates (forteBIO, Greiner, PN655209). A ProA biosensor (forteBIO) was used to capture antibodies. Measurements were performed using basic dynamics under the following settings: baseline 60/load 900/baseline 60/association 300/dissociation 300. The association (Kon) and dissociation (Kdis) rate constants of the target antigen were calculated and used to obtain the dissociation constant (KD). All calculations were performed using software provided by forteBIO.

[2] = target: the molecule itself; experiment: BLI (forteBIO Octet RED96), antibody captured on ProA biosensor, self-association in acetate buffer pH 5.5
Method: as §1, §2

Row | Protein | Kd [1] | Kd [2]
1 | M-751 (antibody, V domains shown, also called candidate antibody) VH: QVQLVQSGAEVKKPGSSVKVSCKASGYTFTNYWMNWVRQAPGQGLEWMGMIHPSDSETRLNQKFQGRVTITVDKSTSTAYMELSSLRSEDTAVYYCAREGRLGLRSYAMDYWGQGTLVTVSS VL: DIQMTQSPSSLSASVGDRVTITCRSSQSLLNSSNQKNYLAWYQQKPGKVPKLLIYFASTRESGVPSRFSGSGSGTDFTLTISSLQPEDVATYFCQQHYITPLTFGGGTKVEIKR | 438 µM | 
2 | M-755 (antibody, V domains shown, also called candidate antibody) VH: QVQLVQSGAEVKKPGASVKVSCKASGYTFTNYWMNWVRQAPGQGLEWMGMIHPSDSETRLNQKLQGRVTITVDKSTSTAYMELRSLRSDDTAVYYCAREGRLGLRSYAMDYWGQGTLVTVSS VL: DIQMTQSPSSLSASVGDRVTITCRSSQSLLNSSNQKNYLAWYQQKPGKAPKLLIYFASTRESGVPSRFSGSGSGTDFTLTISSLQPEDFATYFCQQHYITPLTFGGGTKVEIKR |  | 456 µM
3 | M-747 (antibody, human IgG1, kappa, V domains shown, Humanized anti-DKK2 parental antibody; also called parental antibody; parental molecule) VH: QVQLVQSGSELKKPGASVKVSCKASGYTFTNYWMNWVRQAPGQGLEWMGMIHPSDSETRLNQKFKDRVTITVDKSTSTAYMELSSLRSEDTAVYYCAREGRLGLRSYAMDYWGQGTLVTVSS VL: DIVMTQSPDSLAVSLGERATINCKSSQSLLNSSNQKNYLAWYQQKPGQPPKLLVYFASTRESGVPDRFSGSGSGTDFTLTISSLQAEDVAVYFCQQHYITPLTFGGGTKVEIKR |  | 208 µM
